The data set concerns the molecule itself. The experiment in a line: cross-linking; 5-10 μg/100 μl recombinant protein in 1 x PBS, pH 7.4, room temperature, 0.001% glutaraldehyde, 5, 10 and 20 min, stopped with 0.1 M glycine; SDS-PAGE and western blot with anti-DdRACK1 antibodies; dimers and oligomers also seen without glutaraldehyde. A general note: In western blotting, separated proteins are transferred to a membrane and probed.

B1: recombinant DdRACK1 full length protein cleaved from the GST part (natural protein, D. discoideum, UniProt P46800 1-329, looked up)
chain: MEQQKAPQVTYLEVGSLVGHNGFVTSIAVSPENPDTIISSSRDKTVMVWQLTPTDATSPGKAHRSLKGHSHFVQDVVISHDGQFALSGSWDNTLRLWDITKGVSTRLFKGHTQDVMSVAFSSDNRQIISGSRDATIKVWNTLGECKFTLEGPEAHQDWVSCIRFSPNTPTIVSGSWDNKVKIWDIKSFKCNHTLTDHTGYVNTVTISPDGSLCASGGKDTFACLWELSSGKPLYKLEARNTINALAFSPNKYWLSAATDDKIIIWDLLTKQVLAEIVPEVKEQAFDSKKKKESKPKAPACLSLAWSADGSVLYAGYNDGLIRVYKSSSQ
notes: D. discoideum RACK1 (GpbB), 329 amino acids; Cloned in pGEX-4T-1; cleaved with thrombin; also called GpbB; D. discoideum RACK1; source: E. coli XL1 Blue, purified (GST-Sepharose, thrombin cleavage, DE-52 anion exchange)
For B1, the binding result is recorded as “binds”.

For the origin of these results see PMC4094278, “The Dictyostelium discoideum RACK1 orthologue has roles in growth and development” (Cell Communication and Signaling : CCS, 2014).
